From paper PMC6168700 (2018)
Blank lines part the entries; values can stand above or below the binder they belong to.

How the values were obtained:
[1] = biological target: T1, Full-length Has1, His-tagged (Saccharomyces cerevisiae (strain ATCC …, UniProt Q03532)); assay: Ni-NTA pull-down and co-expression, SDS-PAGE
[2] = biological target: T1, Full-length Has1, His-tagged; assay: Ni-NTA pull-down, Coomassie SDS-PAGE
[3] = biological target: T2, Full-length Rok1, His-tagged (Saccharomyces cerevisiae (strain ATCC …, UniProt P45818)); assay: Ni-NTA pull-down, Coomassie SDS-PAGE; 2 mM ATP present
T2 chain: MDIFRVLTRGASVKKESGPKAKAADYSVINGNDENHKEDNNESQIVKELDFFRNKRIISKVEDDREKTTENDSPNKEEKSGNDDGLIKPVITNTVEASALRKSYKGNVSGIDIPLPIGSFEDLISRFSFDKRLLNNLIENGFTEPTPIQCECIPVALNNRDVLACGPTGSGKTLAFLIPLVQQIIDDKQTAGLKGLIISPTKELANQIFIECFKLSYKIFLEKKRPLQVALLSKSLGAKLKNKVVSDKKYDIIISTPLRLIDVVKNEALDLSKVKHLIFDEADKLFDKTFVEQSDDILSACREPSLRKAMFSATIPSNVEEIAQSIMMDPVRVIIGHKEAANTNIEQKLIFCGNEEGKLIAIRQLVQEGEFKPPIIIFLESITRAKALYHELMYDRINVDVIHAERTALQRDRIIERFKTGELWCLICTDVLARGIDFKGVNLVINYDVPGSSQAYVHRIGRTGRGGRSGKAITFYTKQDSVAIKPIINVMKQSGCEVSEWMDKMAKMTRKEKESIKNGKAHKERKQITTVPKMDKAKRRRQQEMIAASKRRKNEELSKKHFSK

T1 sequence (Q03532 whole entry): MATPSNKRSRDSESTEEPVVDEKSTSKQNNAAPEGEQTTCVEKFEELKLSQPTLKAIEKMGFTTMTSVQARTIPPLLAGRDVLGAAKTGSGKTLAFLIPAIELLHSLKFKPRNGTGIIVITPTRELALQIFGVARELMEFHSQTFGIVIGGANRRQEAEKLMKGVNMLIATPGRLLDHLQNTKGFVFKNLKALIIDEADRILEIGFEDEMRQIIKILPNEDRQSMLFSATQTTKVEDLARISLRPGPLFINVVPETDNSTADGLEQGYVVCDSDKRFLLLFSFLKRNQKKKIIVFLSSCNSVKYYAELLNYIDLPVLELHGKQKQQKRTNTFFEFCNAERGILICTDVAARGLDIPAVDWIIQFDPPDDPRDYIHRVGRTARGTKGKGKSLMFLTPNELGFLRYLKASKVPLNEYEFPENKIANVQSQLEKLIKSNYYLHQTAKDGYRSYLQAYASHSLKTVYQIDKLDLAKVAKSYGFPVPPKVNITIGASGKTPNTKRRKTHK

binding result [1]: no binding
B1: Rrp5 (1400–1729), the TPR region alone (protein)
chain: GLSLSAGFDWTASILDQAQEEEESDQDQEDFTENKKHKHKRRKENVVQDKTIDINTRAPESVADFERLLIGNPNSSVVWMNYMAFQLQLSEIEKARELAERALKTINFREEAEKLNIWIAMLNLENTFGTEETLEEVFSRACQYMDSYTIHTKLLGIYEISEKFDKAAELFKATAKKFGGEKVSIWVSWGDFLISHNEEQEARTILGNALKALPKRNHIEVVRKFAQLEFAKGDPERGRSLFEGLVADAPKRIDLWNVYVDQEVKAKDKKKVEDLFERIITKKITRKQAKFFFNKWLQFEESEGDEKTIEYVKAKATEYVASHESQKADE

binding result [2]: no binding | binding result [3]: no binding
B2: Rrp5 (1083–1343), the last 3 S1 domains only (protein)
chain: STIKVGDELPGRVLKIAEKYVLLDLGNKVTGISFITDALNDFSLTLKEAFEDKINNVIPTTVLSVDEQNKKIELSLRPATAKTRSIKSHEDLKQGEIVDGIVKNVNDKGIFVYLSRKVEAFVPVSKLSDSYLKEWKKFYKPMQYVLGKVVTCDEDSRISLTLRESEINGDLKVLKTYSDIKAGDVFEGTIKSVTDFGVFVKLDNTVNVTGLAHITEIADKKPEDLSALFGVGDRVKAIVLKTNPEKKQISLSLKASHFSKE
